Assay results reported in patent US20100254993A1 (Novartis, published 2010).
Changes are numbered by the printed parent chain.

T1: recombinant human interleukin-4 (human, UniProt P05112 25-153)
T1 construct: Recombinant human IL-4 applied in solution over antibody captured by anti-human IgG (BIAcore); also called rhIL-4; human IL-4
T1 sequence (looked up): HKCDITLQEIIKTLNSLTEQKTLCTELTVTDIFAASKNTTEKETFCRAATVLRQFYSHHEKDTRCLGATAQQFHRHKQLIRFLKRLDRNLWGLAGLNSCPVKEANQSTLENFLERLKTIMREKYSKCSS

B1: Example 4 antibody comprising SEQ ID NO:25 and SEQ ID NO:26 (antibody, human IgG1, V domains shown)
VH: QVQLVQSGAEVKKPGSSVKVSCKASGDTFSSYAISWVRQAPGQGFEWMGGIIPVIGTVNYEERFQDRVTITADNSTSTAYMELTSLRSEDTAVYFCGREEGFLDYWGQGTLVTVSS
VL: AIQLTQSPSSLSASVGDRVTITCRASQGISSALAWYQQKPGKAPKLLIYDASSLESGVPSRFSGSGSGTDFTLTISSLQPEDFATYYCQQFNSYPLLTFGGGTKVEIKR
notes: also called Ex. 4
B2: Example 3 antibody comprising SEQ ID NO:17 and SEQ ID NO:18 (antibody, human IgG1, V domains shown)
VH: QVQLVESGGGMVQPGRSLRLSCAASGFTLSSYGMHWVRQAPGKGLEWVTVIWYDGNNQYYADSVKGRFTISRDNSKNTLYLQMNSLRAEDTAVYYCAREGSWSPDIFDIWGQGTMVTVSS
VL: AIQLTQSPSSLSASVGDRVTITCRASQGISSYLAWYQQKPGKAPKLLIYDASSLESGVPSRFSGSGSGTDFTLTISSLQPEDFATYYCQQFNSYPITFGQGTRLEIKR
notes: also called Ex. 3
B3: Example 5 antibody comprising SEQ ID NO:33 and SEQ ID NO:34 (antibody, human IgG1, V domains shown)
VH: QVQLVESGGGVVQPGRSLRLSCAASGFTFSCCGMHWVRQAPGKGLEWVAVIWYDGSNKYYADSVKGRFTISRDTSKNTLYLQMNSLRAEDTAVYYCATDSSGSFYEYFQHWGQGTLVTVSS
VL: B2 VL with S30N, Y32A, I96Y, R103K
notes: also called Ex. 5
B4: Example 1 antibody comprising SEQ ID NO:1 and SEQ ID NO:2 (human IL-4 specific monoclonal antibody) (antibody, human IgG1, V domains shown)
VH: B2 VH with M11V, L29F, G33A, V50F, Y53D, N56S, N57F, Q58K, D62E
VL: B2 VL with S31R, Y32A
notes: also called Ex. 1; mAb as defined by CDRs as described in claim 2a)
B5: Example 2 antibody comprising SEQ ID NO:9 and SEQ ID NO:10 (antibody, human IgG1, V domains shown)
VH: B2 VH with M11V, Y32F, T49A, N56S, Q58E, I70T
VL: B2 VL with A25T, S30R, Y32A, K39N, I96V
notes: also called Ex. 2

Each binder was assayed against T1, recombinant human interleukin-4 (assay: SPR (BIAcore 2000), mAb captured on anti-human IgG CM-5 chip, rhIL-4 as analyte).
Method: Affinity measurements of human mAbs of the present invention are carried on a BIAcore™ 2000 instrument. […] A subsequent application of rhIL-4 results in a further change of the refractory properties, which allows determination of the association rate (Kₒₙ, on rate) as well as the dissociation rate (Koff, off rate) and the […] of these two, the affinity (Kd, dissociation constant, given in pM), according to the BIAevaluation 3.0 software.

Row | Kd [pM] | Binder
1 | 66 | B1
2 | 89 | B2
3 | 84 | B3
4 | 43 | B4
5 | 59 | B5

The binders below were run against T1, recombinant human interleukin-4 (assay: cell-based or functional assay).

Row | BAF cell proliferation IC50 [pM] | IL-4 induced CD23 IC50 [pM] | IL-4 induced IgE IC50 [pM] | Binder
6 | 688 | 848 | 7570 | B1
7 | 84 | 873 | 7810 | B2
8 | 218 | 2840 | 9940 | B3
9 | 30 | 334 | 2810 | B4
10 | 50 | 463 | 5340 | B5
